Values quoted from earlier work, collected in PMC9456187, “The Ambivalence of Connexin43 Gap Peptides in Cardioprotection of the Isolated Heart against Ischemic Injury” (International Journal of Molecular Sciences, 2022).

Tested on: isolated subsarcolemmal mitochondria, calcium-induced mitochondrial permeability transition
Details: rat heart, Gap27 at substantially higher concentrations than in present study, ref [34]
Text: The detailed mechanisms behind IPC are still debated, but multiple studies confirm that mitochondria play a crucial role in the observed infarct size limitation. IPC promotes translocation of signaling kinases to mitochondria, changes volume regulation of mitochondria, opens mitochondrial potassium channels and delays ROS-induced mitochondrial permeability transition. Connexin43 can be detected in subsarcolemmal mitochondria using immunoblotting of extracts from isolated mitochondria. The role of connexin43 in mitochondria has recently been reviewed ...

B1: Fibroblast growth factor 2: Fibroblast growth factor 2 triggers the protection of rat heart mitochondria (protein, UniProt P13109 10-154, looked up)
Fibroblast growth factor 2: PALPEDGGGAFPPGHFKDPKRLYCKNGGFFLRIHPDGRVDGVREKSDPHVKLQLQAEERGVVSIKGVCANRYLAMKEDGRLLASKCVTEECFFFERLESNNYNTYRSRKYSSWYVALKRTGQYKLGSKTGPGQKAILFLPMSAKS
- Effect on (FGF2-induced) protection of mitochondria against calcium-induced permeability transition (in words): triggers the protection of rat heart mitochondria
